From patent US20200206342A1

Assays:
I491S = test: flow cytometry, 2 nM PG16, transfected Expi293F cells, percent of cells in the positive gate (Negative: 0.5 %, 0.5 %)
F159V = test: as above
Y191I = test: as above
W614A = test: as above
S199C = test: as above
Q540V = test: as above
K617Q = test: as above
T319K = test: as above
D133W = test: as above
W338A = test: as above
F223L = test: as above
E634A = test: as above
C331I = test: as above
T248E = test: as above
[1] = target: BaL Env gp160 wildtype (HIV-1 strain BaL); test: as above
I686R = test: as above
V36R = test: as above
I201M = test: as above
V208G = test: as above
I251S = test: as above
F93G = test: as above
[2] = target: purified soluble 8his-tagged BG505 SOSIP.664 (T332N), wildtype (HIV-1 strain BG505); test: ELISA, his-tagged SOSIP on copper-coated plate, peroxidase anti-human IgG-Fc, OD 630 nm
[3] = target: purified soluble 8his-tagged BG505-QES.i03.c01 SOSIP (HIV-1 strain BG505); test: as above
[4] = target: BaL Env QES.i01 + I181L + V255M (QES.i01.c01) (HIV-1 strain BaL); test: flow cytometry titration on cells
[5] = target: 25711 Env I181L + V254T (QES.c02) (HIV-1 strain 25711); test: flow cytometry titration on cells
[6] = target: Q842.d12 Env QES.i04 + I181L (QES.i04.I181L) (HIV-1 strain Q842.d12); test: flow cytometry titration on cells
[7] = target: DU422 Env V181L + V254T + V255M (QES.c03) (HIV-1 strain DU422); test: flow cytometry titration on cells
[8] = target: Q769.d22 Env QES.i03 + V255M (QES.i03.V255M) (HIV-1 strain Q769.d22); test: flow cytometry titration on cells
[9] = target: Q842.d12 Env gp160 wildtype (HIV-1 strain Q842.d12); test: apparent KD, flow cytometry titration on Expi293F cells
[10] = target: Q769.d22 Env gp160 wildtype (HIV-1 strain Q769.d22); test: as above
[11] = target: BaL Env T49D + P124D + I595M (BaL-QES.i01) (HIV-1 strain BaL); test: as above
[12] = target: BaL Env T49D + P124D + L663N (BaL-QES.i02) (HIV-1 strain BaL); test: as above
[13] = target: BaL Env gp160 wildtype (HIV-1 strain BaL); test: as above
[14] = target: Q842.d12 Env P124D + F223Y + R557Q + I595M (Q842-QES.i04) (HIV-1 strain Q842.d12); test: as above
[15] = target: Q769.d22 Env A200E + F223Y + I595M (Q769-QES.i03) (HIV-1 strain Q769.d22); test: as above
[16] = target: BaL Env T49D + P124D + I595M (BaL-QES.i01) (HIV-1 strain BaL); test: flow cytometry titration on Expi293F cells
[17] = target: BaL Env T49D + P124D + L663N (BaL-QES.i02) (HIV-1 strain BaL); test: flow cytometry titration on Expi293F cells
[18] = target: Q842.d12 Env P124D + F223Y + R557Q + I595M (Q842-QES.i04) (HIV-1 strain Q842.d12); test: flow cytometry titration on Expi293F cells
[19] = target: Q769.d22 Env A200E + F223Y + I595M (Q769-QES.i03) (HIV-1 strain Q769.d22); test: flow cytometry titration on Expi293F cells
[20] = target: DU422 gp140 (surface-displayed ectodomain) (HIV-1 strain DU422); test: apparent dissociation constant, flow cytometry on Expi293F cells
[21] = target: Q842.d12 Env gp160 wildtype (HIV-1 strain Q842.d12); test: flow cytometry titration, transfected cells expressing the Env
[22] = target: purified soluble 8his-tagged BG505 SOSIP.664 (T332N), wildtype (HIV-1 strain BG505); test: ELISA, his-tagged SOSIP on nickel-coated plate, peroxidase anti-human IgG-Fc, OD 630 nm
[23] = target: purified soluble 8his-tagged BG505-QES.i03.c01 SOSIP (HIV-1 strain BG505); test: ELISA, purified 8his SOSIP on nickel-coated plate
[24] = target: Q842.d12 Env P124D + F223Y + R557Q + I595M (Q842-QES.i04) (HIV-1 strain Q842.d12); test: flow cytometry, Expi293F cells

PG16 (antibody)
percent positive cells (first of two replicates) (I491S): 1.3% | percent positive cells (second of two replicates) (I491S): 2.1% | percent positive cells (first of two replicates) (F159V): 1.4% | percent positive cells (second of two replicates) (F159V): 1.7% | percent positive cells (first of two replicates) (Y191I): 1.9% | percent positive cells (second of two replicates) (Y191I): 1.9% | percent positive cells (first of two replicates) (W614A): 1.2% | percent positive cells (second of two replicates) (W614A): 2.1% | percent positive cells (first of two replicates) (S199C): 1.2% | percent positive cells (second of two replicates) (S199C): 1.6% | percent positive cells (first of two replicates) (Q540V): 2.4% | percent positive cells (second of two replicates) (Q540V): 3% | percent positive cells (first of two replicates) (K617Q): 15% | percent positive cells (second of two replicates) (K617Q): 14.8% | percent positive cells (first of two replicates) (T319K): 20.3% | percent positive cells (second of two replicates) (T319K): 18.8% | percent positive cells (first of two replicates) (D133W): 16% | percent positive cells (second of two replicates) (D133W): 16% | percent positive cells (first of two replicates) (W338A): 1.3% | percent positive cells (second of two replicates) (W338A): 2% | percent positive cells (first of two replicates) (F223L): 11.2% | percent positive cells (second of two replicates) (F223L): 10.7% | percent positive cells (first of two replicates) (E634A): 11.1% | percent positive cells (second of two replicates) (E634A): 9.3% | percent positive cells (first of two replicates) (C331I): 1.4% | percent positive cells (second of two replicates) (C331I): 1.9% | percent positive cells (first of two replicates) (T248E): 1.1% | percent positive cells (second of two replicates) (T248E): 2% | percent positive cells (first of two replicates) [1]: 38% | percent positive cells (second of two replicates) [1]: 36.2% | percent positive cells (first of two replicates) (I686R): 5% | percent positive cells (second of two replicates) (I686R): 5.9% | percent positive cells (first of two replicates) (V36R): 2.1% | percent positive cells (second of two replicates) (V36R): 2.6% | percent positive cells (first of two replicates) (I201M): 29.5% | percent positive cells (second of two replicates) (I201M): 29.8% | percent positive cells (first of two replicates) (V208G): 21.6% | percent positive cells (second of two replicates) (V208G): 22.5% | percent positive cells (first of two replicates) (I251S): 6.1% | percent positive cells (second of two replicates) (I251S): 4.2% | percent positive cells (first of two replicates) (F93G): 1.4% | percent positive cells (second of two replicates) (F93G): 2.1% | EC50 (read off the curve) [2]: 0.4 nM | EC50 (read off the curve) [3]: 0.2 nM | fold more PG16 bound at saturation against wildtype [4]: < 5 fold | fold more PG16 bound at saturation against wildtype [5]: < 5 fold | fold more PG16 bound at saturation against wildtype [6]: < 5 fold | fold more PG16 bound at saturation against wildtype [7]: < 5 fold | fold more PG16 bound at saturation against wildtype [8]: < 5 fold | Kd [9]: 3.4 nM | Kd [10]: 5 nM | Kd [11]: 1.2 nM | Kd [12]: 1.4 nM | Kd [13]: 4 nM | Kd [14]: 5 nM | Kd [15]: 3.7 nM | fold increase in PG16 binding at saturation against wildtype [16]: 1.6 fold | fold increase in PG16 binding at saturation against wildtype [17]: 1.6 fold | fold increase in PG16 binding signal at saturation against wildtype [18]: 2.4 fold | fold higher binding at saturation against wildtype [19]: 2.7 fold | Kd [20]: 5 nM

PGT145 (antibody)
EC50 (read off the curve) [21]: 0.5 nM

CD4-IgG2 (Fc fusion)
EC50 (read off the curve) [22]: 0.08 µg/mL | fold reduction of apparent affinity against wildtype [23]: 5.5 fold

soluble CD4 sCD4-183 (domains D1-D2) (from UniProt P01730 26-208) (receptor)
fold increase in soluble CD4 binding against wildtype [24]: 3 fold | Kd [20]: 18 nM

VRC01 (antibody)
EC50 (read off the curve) [2]: 1 nM | EC50 (read off the curve) [3]: 1 nM
